# Data as given in publication PMC10352297, “Determining the structure of the bacterial voltage-gated sodium channel NaChBac embedded in liposomes by cryo electron tomography and subtomogram averaging” (Scientific Reports, 2023).
# B1: His6-GFP^A206K-NaChBac (natural protein, Bacillus halodurans, UniProt Q9KCR8 1-274, looked up)
# chain: MKMEARQKQNSFTSKMQKIVNHRAFTFTVIALILFNALIVGIETYPRIYADHKWLFYRIDLVLLWIFTIEIAMRFLASNPKSAFFRSSWNWFDFLIVAAGHIFAGAQFVTVLRILRVLRVLRAISVVPSLRRLVDALVMTIPALGNILILMSIFFYIFAVIGTMLFQHVSPEYFGNLQLSLLTLFQVVTLESWASGVMRPIFAEVPWSWLYFVSFVLIGTFIIFNLFIGVIVNNVEKAELTDNEEDGEADGLKQEISALRKDVAELKSLLKQSK
# notes: NaChBac, prokaryotic voltage-gated sodium channel from Bacillus halodurans; cDNA for full-length NaChBac in pET21a; the tagged subunit is 55 kDa; the channel without tags is about 120 kDa as a tetramer; also called his-GFP-NaChBac; his-tagged GFP^A206K-NaChBac; source: E. coli C41(DE3), purified (Ni-NTA, SEC in DDM), reconstituted into liposomes of E. coli polar lipid extract; not shown: His6, …
# Target: the molecule itself
# Assay: cryo-EM structure; cryo electron tomography and subtomogram averaging of NaChBac in proteoliposomes (E. coli polar lipid extract, lipid-to-protein 2:1 wt/wt); polarized membrane, [K+]in 150 mM, [K+]out 3 mM, 1 uM valinomycin, -100 mV; 25 mM HEPES pH 7.0; 3116 particles, C1, 16.3 A
protein,measurement,value
B1,stoichiometry N,4
